Test results from IntAct's records for PubMed 16839886.

B1: Guanine nucleotide-binding protein alpha-1 subunit (Saccharomyces cerevisiae), P08539 (parent)
chain: MGCTVSTQTIGDESDPFLQNKRANDVIEQSLQLEKQRDKNEIKLLLLGAGESGKSTVLKQLKLLHQGGFSHQERLQYAQVIWADAIQSMKILIIQARKLGIQLDCDDPINNKDLFACKRILLKAKALDYINASVAGGSDFLNDYVLKYSERYETRRRVQSTGRAKAAFDEDGNISNVKSDTDRDAETVTQNEDADRNNSSRINLQDICKDLNQEGDDQMFVRKTSREIQGQNRRNLIHEDIAKAIKQLWNNDKGIKQCFARSNEFQLEGSAAYYFDNIEKFASPNYVCTDEDILKGRIKTTGITETEFNIGSSKFKVLDAGGQRSERKKWIHCFEGITAVLFVLAMSEYDQMLFEDERVNRMHESIMLFDTLLNSKWFKDTPFILFLNKIDLFEEKVKSMPIRKYFPDYQGRVGDAEAGLKYFEKIFLSLNKTNKPIYVKRTCATDTQTMKFVLSAVTDLIIQQNLKKIGII
partner: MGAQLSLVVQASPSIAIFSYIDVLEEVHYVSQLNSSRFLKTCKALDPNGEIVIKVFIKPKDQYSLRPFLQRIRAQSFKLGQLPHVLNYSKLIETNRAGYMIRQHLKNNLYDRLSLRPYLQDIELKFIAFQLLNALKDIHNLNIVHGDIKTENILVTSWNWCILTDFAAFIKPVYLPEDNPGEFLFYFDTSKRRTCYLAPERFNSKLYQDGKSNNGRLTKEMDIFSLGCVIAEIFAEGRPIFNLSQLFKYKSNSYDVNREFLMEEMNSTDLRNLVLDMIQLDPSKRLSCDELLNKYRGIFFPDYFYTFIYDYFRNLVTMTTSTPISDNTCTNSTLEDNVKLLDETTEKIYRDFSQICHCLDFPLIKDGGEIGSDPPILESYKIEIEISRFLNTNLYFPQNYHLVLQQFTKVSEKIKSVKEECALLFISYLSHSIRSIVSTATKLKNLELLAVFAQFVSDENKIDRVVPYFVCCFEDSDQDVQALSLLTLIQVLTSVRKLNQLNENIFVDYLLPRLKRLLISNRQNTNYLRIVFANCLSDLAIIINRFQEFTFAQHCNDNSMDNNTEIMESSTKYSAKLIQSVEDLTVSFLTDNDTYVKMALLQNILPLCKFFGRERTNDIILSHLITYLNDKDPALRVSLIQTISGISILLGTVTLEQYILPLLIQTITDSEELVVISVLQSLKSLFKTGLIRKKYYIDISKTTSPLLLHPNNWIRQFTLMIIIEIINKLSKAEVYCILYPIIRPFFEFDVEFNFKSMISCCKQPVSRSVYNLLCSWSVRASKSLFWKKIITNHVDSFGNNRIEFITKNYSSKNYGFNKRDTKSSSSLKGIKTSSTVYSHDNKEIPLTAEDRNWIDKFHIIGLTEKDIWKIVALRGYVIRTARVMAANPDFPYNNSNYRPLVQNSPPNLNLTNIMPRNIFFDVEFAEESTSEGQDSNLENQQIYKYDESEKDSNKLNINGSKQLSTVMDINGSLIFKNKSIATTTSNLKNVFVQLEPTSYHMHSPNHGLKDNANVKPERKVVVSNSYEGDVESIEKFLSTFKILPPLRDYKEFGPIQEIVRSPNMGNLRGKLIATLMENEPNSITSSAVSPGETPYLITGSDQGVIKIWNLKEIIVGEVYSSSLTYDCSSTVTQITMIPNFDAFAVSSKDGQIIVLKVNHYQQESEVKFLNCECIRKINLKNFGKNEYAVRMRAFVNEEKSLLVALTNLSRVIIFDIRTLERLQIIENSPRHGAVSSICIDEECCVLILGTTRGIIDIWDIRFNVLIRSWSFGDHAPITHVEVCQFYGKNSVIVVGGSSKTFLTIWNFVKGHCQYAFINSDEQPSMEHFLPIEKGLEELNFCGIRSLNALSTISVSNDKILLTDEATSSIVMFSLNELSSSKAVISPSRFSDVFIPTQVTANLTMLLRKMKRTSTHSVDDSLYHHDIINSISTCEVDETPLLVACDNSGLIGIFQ

Variants of: B1
Conditions: with vps15_yeast VPS15, P22219

Variant | effect of a mutation on the interaction
MGCTVSTQTIGDESDPFLQNKRANDVIEQSLQLEKQRDKNEIKLLLLGAGESGKSTVLKQLKLLHQGGFSHQERLQYAQVIWADAIQSMKILIIQARKLGIQLDCDDPINNKDLFACKRILLKAKALDYINASVAGGSDFLNDYVLKYSERYETRRRVQSTGRAKAAFDEDGNISNVKSDTDRDAETVTQNEDADRNNSSRINLQDICKDLNQEGDDQMFVRKTSREIQGQNRRNLIHEDIAKAIKQLWNNDKGIKQCFARSNEFQLEGSAAYYFDNIEKFASPNYVCTDEDILKGRIKTTGITETEFNIGSSKFKVLDAGGLRSERKKWIHCFEGITAVLFVLAMSEYDQMLFEDERVNRMHESIMLFDTLLNSKWFKDTPFILFLNKIDLFEEKVKSMPIRKYFPDYQGRVGDAEAGLKYFEKIFLSLNKTNKPIYVKRTCATDTQTMKFVLSAVTDLIIQQNLKKIGII [Q323L] | decreasing interaction
